# From paper PMC4239116, “Crystal Structure of Cytomegalovirus IE1 Protein Reveals Targeting of TRIM Family Member PML via Coiled-Coil Interactions” (PLoS Pathogens, 2014)
# How the values were obtained:
# [1] = molecular target: rhIE1(36-395), core domain of rhesus cytomegalovirus IE1, lysine-methylated (rhesus cytomegalovirus (rhesus macaque CMV)); assay: crystal structure; rhIE1(36-395), lysine-methylated; hanging drop, 0.4 M magnesium formate, 15% (w/v) PEG 3350; monoclinic P2_1 crystals and, after controlled dehydration, tetragonal P4_3 crystals (2.3 Å)
# [2] = molecular target: the molecule itself; assay: SEC; Superdex 200 prepgrade; 25 mM Tris, 150 mM NaCl, 10 mM DTT, pH 7.5; calibrated with the Bio-Rad gel filtration standard
Molecule,stoichiometry N [1],binding result [2]
"rhIE1(36-395), core domain of rhesus cytomegalovirus IE1, lysine-methylated (domain or fragment)",2,–
"hIE1_(CORE)(14-382), recombinant (domain or fragment, also called hIE1(14-382); source: E. coli BL21(DE3), purified (glutathione sepharose, PreScission cleavage, SEC)) PDEGPSSKVPRPETPVTKATTFLQTMLRKEVNSQLSLGDPLFPELAEESLKTFEQVTEDCNENPEKDVLAELVKQIKVRVDMVRHRIKEHMLKKYTQTEEKFTGAFNMMGGCLQNALDILDKVHEPFEEMKCIGLTMQSMYENYIVPEDKREMWMACIKELHDVSKGAANKLGGALQAKARAKKDELRRKMMYMCYRNIEFFTKNSAFPKTTNGCSQAMAALQNLPQCSPDEIMAYAQKIFKILDEERDKVLTHIDHIFMDILTTCVETMCNEYKVTSDACMMTMYGGISLLSEFCRVLCCYVLEETSVMLAKRPLITKPEVISVMKRRIEEICMKVFAQYILGADPLRVCSPSVDDLRAIAEESDEEE",–,binds
